Reference: patent US20170202936A1 (VAXON BIOTECH, published 2017)

B1: Her2/neu246A1 (peptide)
peptide: APKHSDCLA
notes: Synthetic optimized peptide; Her2/neu246 with A at position 1
B2: Her2/neu1069L9 (peptide)
peptide: APRSPLAPL
notes: Synthetic optimized peptide; Her2/neu1069 with L at the C-terminal position
B3: Hsp70115A1R3 (peptide)
peptide: APREISSMVL
notes: Hsp70 115 with A at position 1 and R at position 3

Biological target: T1, HLA-B*0702 (human)
T1 construct: MHC class I molecule on T2-B7 cells; also called HLA-B7
Assay: assay not given

Row | Binder | binding result
1 | B1 | binds

Biological target: T1, HLA-B*0702
Assay: RA grade (++ = RA < 1), T2-B7 cells, ME-1 mAb staining
Text: (§1) The protocol used has been described previously (Rohrlich et al., 2003).

Row | Binder | relative affinity (RA): ratio of peptide concentration to reference peptide concentration inducing 20% of HLA-B*0702 expression
2 | APRSLGLEL [Hsp70397R3L9] | < 1 ratio
3 | B2 | < 1 ratio
4 | APRVSIRLPL [APRVSIRLPL (SEQ ID NO: 46)] | < 1 ratio
5 | APRMHCAVDL [APRMHCAVDL (SEQ ID NO: 45)] | < 1 ratio

Biological target: T1, HLA-B*0702
Assay: RA grade (+ = 1 < RA < 10), T2-B7 cells, ME-1 mAb staining
Text: as §1

Row | Binder | relative affinity (RA): ratio of peptide concentration to reference peptide concentration inducing 20% of HLA-B*0702 expression
6 | B3 | 1 to 10 ratio
7 | APRRRLGCEL [APRRRLGCEL (SEQ ID NO: 51)] | 1 to 10 ratio
8 | APRRLVQLL (TERT444 with A at position 1) [TERT444A1] | 1 to 10 ratio
9 | APRPWTPCL [APRPWTPCL (SEQ ID NO: 52)] | 1 to 10 ratio
10 | APRCRAVRSL [TERT4] | 1 to 10 ratio
11 | APRTKAEML [APRTKAEML (SEQ ID NO: 57)] | 1 to 10 ratio
12 | APRALVETL [APRALVETL (SEQ ID NO: 49)] | 1 to 10 ratio
13 | APREYVNAL [APREYVNAL (SEQ ID NO: 47)] | 1 to 10 ratio

Biological target: T1, HLA-B*0702
Assay: T2-B7 cells, HLA-B*0702 surface expression (ME-1 mAb); ratio to reference peptide CMV265-274 (SEQ ID NO: 9)
Text: as §1

Row | Binder | RA (relative affinity)
14 | YPVTNAVITV (also called Hsp137) [Hsp70 137 (10)] | > 10 ratio
15 | YPEEISSMVL (also called Hsp115) [Hsp70 115] | > 10 ratio
16 | APRRLVQLL (TERT444 with A at position 1) [TERT444A1] | 1.4 ratio
17 | APRCRAVRSL [TERT4] | 0.74 ratio
